Experimental data taken from patent publication US20060147995A1 (UNILEVER PATENT HOLDINGS B V, published 2006).

Molecular target: T1, bovine serum albumin (bovine, UniProt P02769 25-607)
T1 construct: Unconjugated carrier protein used as a control antigen; also called BSA
Assay: ELISA of soluble HC-V-myc supernatant on immobilised antigens, anti-myc detection
Protocol: Commercially available strains such as TOPIOF (stratagene) and HB2151 (Pharmacia) may alternatively be used. Two transformants of each clone were pre-grown in 10 ml 2TY/Ampicillin/Glucose. After 3-4 hours of growth at 37° C. (OD₆₀₀=0.5), the cells were pelleted by centrifugation and resuspended in 5 ml 2TY/Ampicillin/IPTG (0.1 mM). After 24 hours of incubation at 25° C. the cultures were centrifuged, and the supernatants were analysed for the production of antigen binding activity in essential the same way as described in Example 3. In this case, however, the presence of specifically bound HC-V fragments was detected by incubation with monoclonal anti-myc antibodies, followed by incubation with poly-clonal rabbit-anti-mouse conjugate with alkaline phosphatase.
Another three clones (nR3, nR4 and nR8) were specific for RR6-BSA, but the signals observed were very low. […] This was confirmed by analysis of the supernatants on Western blots (FIG. 3B). The remaining 3 clones (nR6, nR9 and nR10) gave significant signals over background on RR6-BSA, BSA and E3G-OVA (FIG. 3A). It would appear that these three ‘sticky’ clones bind to immobilised proteins in general.

T1 sequence (P02769 25-607 limits assumed): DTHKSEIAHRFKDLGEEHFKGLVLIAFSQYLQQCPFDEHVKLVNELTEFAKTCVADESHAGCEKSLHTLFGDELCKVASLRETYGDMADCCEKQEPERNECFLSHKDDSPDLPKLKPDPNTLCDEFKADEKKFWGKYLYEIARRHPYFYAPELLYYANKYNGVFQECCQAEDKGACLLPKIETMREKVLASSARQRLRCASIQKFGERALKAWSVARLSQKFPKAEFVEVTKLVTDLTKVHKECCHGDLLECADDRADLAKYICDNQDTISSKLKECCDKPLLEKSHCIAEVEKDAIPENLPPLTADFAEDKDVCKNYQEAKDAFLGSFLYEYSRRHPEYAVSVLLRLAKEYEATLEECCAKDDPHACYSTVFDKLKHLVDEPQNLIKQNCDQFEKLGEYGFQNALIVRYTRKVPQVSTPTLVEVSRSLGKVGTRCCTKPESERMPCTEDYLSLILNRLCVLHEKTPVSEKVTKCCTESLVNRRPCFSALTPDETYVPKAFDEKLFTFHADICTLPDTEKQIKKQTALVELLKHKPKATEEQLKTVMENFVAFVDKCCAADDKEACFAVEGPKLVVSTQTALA

B1: nR11 (VHH)
VHH: QVQLQESGGGLVQPGDFVRLSCAASRRASSTYAVGWFRQAPGKEREFVGRIHRGGGSTYYADSVKGRFTISRDNTQNTVYLQMNSLKPEDTAVYYCNVRSYWGQGTQVTVSS
notes: Llama HC-V tested as soluble HC-V-myc in crude culture supernatant; also called anti-RR6 HC-V fragment nR11; HC-V-myc
binding result: no binding
